# Results as given in publication PMC6297244, “Synthesis and Kinetic evaluation of an azido analogue of methylerythritol phosphate: a Novel Inhibitor of E. coli YgbP/IspD” (Scientific Reports, 2018).
# What was measured:
# [1] = substrate: C[C@](O)(CO)[C@H](O)COP(=O)(O)O; test: Michaelis-Menten and bi-substrate steady-state kinetics (apparent Km), malachite green assay; assay type: biochemical, Escherichia coli; settings: Mg2+ ([…] MgCl2 in assay); CTP as co-substrate sequential mechanism; ternary complex with CTP
# [2] = substrate: Nc1ccn([C@@H]2O[C@H](COP(=O)(O)OP(=O)(O)OP(=O)(O)O)[C@@H](O)[C@H]2O)c(=O)n1; test: as above; assay type: biochemical, Escherichia coli; settings: Mg2+ ([…] MgCl2 in assay); MEP as co-substrate CTP-binding pocket; sequential mechanism
protein,measurement,setting,value
YgbP/IspD (Escherichia coli K-12) (protein) ATTHLDVCAVVPAAGFGRRMQTECPKQYLSIGNQTILEHSVHALLAHPRVKRVVIAISPGDSRFAQLPLANHPQITVVDGGDERADSVLAGLKAAGDAQWVLVHDAARPCLHQDDLARLLALSETSRTGGILAAPVRDTMKRAEPGKNAIAHTVDRNGLWHALTPQFFPRELLHDCLTRALNEGATITDEASALEYCGFHPQLVEGRADNIKVTRPEDLALAEFYLTRTIHQENT,Km,[1],40 ± 7 µM
same,Km,[2],84 ± 9 µM
